Values quoted from earlier work, collected in PMC8999013.

Biological target: integrin α7B cytoplasmic domain (Homo sapiens) (UniProt Q13683)
Assay: intrinsic tryptophan fluorescence

Sequence of integrin α7B cytoplasmic domain (Homo sapiens) (Q13683 1104-1181): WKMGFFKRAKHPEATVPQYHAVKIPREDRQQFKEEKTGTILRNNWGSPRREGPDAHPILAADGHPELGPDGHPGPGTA
Sequence of CIB2 (O75838 whole entry): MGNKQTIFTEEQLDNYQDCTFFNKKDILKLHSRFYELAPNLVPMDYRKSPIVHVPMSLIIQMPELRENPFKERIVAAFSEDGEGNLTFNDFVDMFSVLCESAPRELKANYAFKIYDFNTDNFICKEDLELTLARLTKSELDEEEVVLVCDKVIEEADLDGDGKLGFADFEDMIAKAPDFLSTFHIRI

CIB2 (from UniProt O75838)
Kd: 304 nM
